The nanobody polyreactivity screen of Harvey et al. (2022)

Test: yeast display, Sf9 membrane polyspecificity reagent, FACS + sequencing; frameworks hold sequencing errors
Outline: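 Sorting gates, low and high (top ~1%), were placed on anti-HA fluorescence to track expression and on streptavidin fluorescence to track reagent binding. A clone's polyreactivity label is taken from the gate it came out of. The reagent was 10% biotinylated, detergent-solubilized Sf9 membrane, applied for 1 hour at 4 °C to galactose-induced yeast display cells.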

QVQLVESGGGLVLAGGSLRLSCAASGRPFYGNTMGWYRQAPGKERELVAAISYSGGTTSYADSVKGRFTISRDNAKNTVYLQMNSLKPEDTAVYYCAKRYSYWWTSGYDYWGQGTQVTVSS
polyreactivity (PSR sort gate): high polyreactivity

QVQLVESGGGLVQAGGSLRLSCAASGSIFKYYTMGWYRQAPGKEREFVAAITRSGGSTYYADSVKGRFTISRDNAKNTVYLQMNSLKPEDTAVYYCAARTIRDQTVRFGHWGQGTQVTVSS
polyreactivity (PSR sort gate): high polyreactivity

QVQLVESGGGLVQAGGSLRLSCAASGSLFSGYTMAWYSQAPGKERELVAAITRSGGRTYYADSVKGRFTISRDNAKNTVYLQMKSLKPEVTAVNYCAAVDRRGANYNYWGQGTQVTVSS
polyreactivity (PSR sort gate): high polyreactivity

QVQLVGSGGGLVQAGGSLRLSCAASGLTFNWYAMGWYRQAPGKERELVASVSKRGGSTYYADSVKGRFTISRDNAKNNVYLQMNSLKPEDTAVYYCAASRYPSYDYWGQGTQVTVSS
polyreactivity (PSR sort gate): high polyreactivity

QVQLVESGGGLVQAGGSLRLSCAASGSIFFSYAMGWYRQAPGKEREFVAAINSDDASTYADSVKGRFTISRDNAKNTVYLQMNSLKPEDTAVYYCAASFLWSWYDYWGQGTQVTVSS
polyreactivity (PSR sort gate): low polyreactivity

QVQLVESGGGLVQAGGSLRLSCAASGSTFVRNDMGLYRQAPGKERELVAAITRGGRTYYADSVKGRFTISRDNAKNTVYLQMNSLKPEDTAVYYCAAEGTGYSVGWQYGYWVQGTQVTVSS
polyreactivity (PSR sort gate): low polyreactivity

QVQLVESGGGLVQAGGSLRLSCAASGSTFGHYAMGWYIQAPGKERELVAGITDTDNHELRRLCEGRFTISRDNAKNTVYLQMNSLKPEDTAVYYCNADDTYYPLCGITGYDYWGQGTQVTVSS
polyreactivity (PSR sort gate): low polyreactivity

QVQLVESGGGVVQAGGSLRLSCAASGRIFRYYTMGWYRQAPGKERELVAAITSSGGSTYYADSVKGRFTISRDNAKNTVYLQMNSLKPEDTAVYYCATRSYVFAWEFNYWGQGSQVTVSS
polyreactivity (PSR sort gate): high polyreactivity

QVQLVESGGGLVQAGGSLRLSCAASGSTFSRYTMGWYRQAPGKERELVAAIRRSGASTYYADSVKGRFTISRDNAKITVYLQMNSLKPEDTAVYYCAVGRYRYGYWGHGTQVTVSS
polyreactivity (PSR sort gate): high polyreactivity

QVQLVESGGGLVQAGGSLRLSCAASGIIFYWYAMGWYRQAPGKERELVAAINSGGRTNYADSVKGRFTISRDNAKNTVYLQMNSLKPEDTAVYYCAARANPYVLKYYYWGQGTQVTVSS
polyreactivity (PSR sort gate): high polyreactivity

QVQLVESGGGLVQAGGSLRLSCAASGSIRHNTMGWYRQAPGKEREFVASISKRGGSTYYADSVKGRFTISRDNAKNTVYLQMNSLKPEYTAVYYCNAGAVTFVGRDYWGQGTQVTVSS
polyreactivity (PSR sort gate): high polyreactivity

QVQLVESGVCLVQAGGSLRLSCAATGSIFEYNAMGWYRQAHGKERELVAAITRGGNTYYADSVKGLFTISRDNAKNTVYLQMNSLKPEDTAVYYCAAVEWYGYPYYYWGQGTQVTVSS
polyreactivity (PSR sort gate): low polyreactivity

QVQLVESGGGLVQAGGSLRLSCAASGSTFYFYAMGLFRQAPGKERELVAAITSSGGSTYYAESVKGRFTISRDNAKNTVYLQMISQKPEDTAVYYCATTYPQRYNGYDYWGQGTQVTVSS
polyreactivity (PSR sort gate): low polyreactivity

QVQLVESGGGLVQAGGSLRLSCAASGSTFRVYAMGWYRQAPRKERELVAAISKSGVSTYYADSVKGRFTISRDNAMNTVYLQMNSLKPEDTAVYYCPVFLGYSRKYDYWGQGTQVTVSS
polyreactivity (PSR sort gate): high polyreactivity

QVQLVESGGGLVQAGGSLRLSCAASGRIFRTNAQGWYRQAPGKERELVAAITRGGTTNYADSVKGRFTISRDNAKNTVYLQMNSLKPEDTAVYYCATRLSGWRYYLARYDYWGQGTQVTVSS
polyreactivity (PSR sort gate): low polyreactivity

QVQLVESGAGLVQAGGSLRLSCAASGRTFWVYSMGWSRQAPGKESELVAAFRRGGITNYADSVKGRFTISRDNAKITVYLQMNCLNPEDTAVYYCATENYGYLTRYYYWGPGTQVTVSS
polyreactivity (PSR sort gate): low polyreactivity

QVQLVESGGGLVQAGGSLRLSCAASGGIFGRNAMGWYRQAPGKEMELVAAISSSGGTTYYADSVKGRFTISRDYAKNTVYLQMNSMKPEDTAVYYCNAAYYWRSFHDDYFGQGTQVTVSS
polyreactivity (PSR sort gate): high polyreactivity

QVQLVESGGGLVQAGGSLRLSCAASGSIFYTNAMGWYRQAPGKERELVAAIRWSGGRTYYADSVKGRFTISRDNAKNSVYLQMNSLKPEDTAVYYCNKVPRTPIPYKYGYWGQGTQVTVSS
polyreactivity (PSR sort gate): high polyreactivity

QVQLVESGGGLVQAGGSLRLSCAASGRTFGWNAMGWYRQAPGKERELVASIRYSGGTTYYADSVKGRFTISRDNAKNTVYLQMKSLKPEDTAVYYCNSAYYNTGATRPYGYGYWGQGTQVTVSS
polyreactivity (PSR sort gate): low polyreactivity

QVQLVESGGGLVQAGGSLRLSCAASGSTFKRNAMGWYRQAPGKERELVAAISFRGGSTYYADSVKGRFTISRDNAKNTVYLQMNSLKPEDTAVYYCAAGIYRIRGGGISFDYWGQGTQVTVSS
polyreactivity (PSR sort gate): high polyreactivity

QVQLVESGGGLVQAGGSLRLSCAASGNTFVRNAMGWYRQAPGKERELVASISQSGGTTYYADSVKGRFTISRDNAKNTVYLQMNSLKPEDTAVYYCNAARYRRSPGHTKYNYWGQGTQVTVSS
polyreactivity (PSR sort gate): high polyreactivity

QVLLLESGGGVVQAGGSHRLRCAASGRIFCTNTMGWYRQAPGKERELVAVISSSGDSTYYADSVKGRFTISRDNAKNTVYLQINSLKPEDTAVYYCAKGNNWISRLMDYWGQGTQVTVSS
polyreactivity (PSR sort gate): low polyreactivity

QVQLVESGGGLVQAGGSLRLSCAASGITFKAYAMGWYRQAPGKERELVAAINTSGARTYYADSVKGRFTISRDNAKNTVYLQMNSLKTEDTAVYYCNARLHQQEGDDWGQGTQVTVSS
polyreactivity (PSR sort gate): low polyreactivity

QVQLVESGGGLVQAGGSLLLSCAASGSIFYRYAMGWDRQAPGKERELVAAISWNGGTTYYADSVKGRFTISRDNAKNTVYLQMNSLKPEDTAVYYCAADRPTSVYLFDYWGQGTLVTVSS
polyreactivity (PSR sort gate): high polyreactivity

QFQLVESGGGLVQAGGSLRLSCAASGRIFARNTMGWYRQAAGKERELVAAITYSGGNTYYADSVKGRFTISRDNAKNTVYLQMNSLKPEDTAVYDCNKASFGRLRKKIMDYWGQGTQVTVSS
polyreactivity (PSR sort gate): high polyreactivity

QVQLVESGGGLVQAGGSLRLSCAASGGTLYIYAMGWDRQAPGKERELVAAIRGRGGSTYADSVKGRCTISRDNAKNTVYLQMNSLKPEDTAVYYCAASGIRYWLPYDYWGQGTQVTVSS
polyreactivity (PSR sort gate): high polyreactivity

QVQLVESGGGKVQAGRSHRLTCAASGSIFYTYPMGWYRQAPGKERELVAAIRSSDGSTYYADSVKGRFTISRDYAKNTVYIQMNSLKSEYTGVYYCAAENIPGEGYYHFEYDYWGQGTQVTVSS
polyreactivity (PSR sort gate): low polyreactivity

QVQLVESGGGLVQAGGILRLSCAASGRIFTRYSLGWYRPAPGKESELVAAISSGGSTYYADSVKGRFTISRDNAKNTVYLQMNSLKPEDTAVYYSAAKTRPQRTFSTRQQMNYWGQGTQVTVSS
polyreactivity (PSR sort gate): high polyreactivity

QVQLVESAGGLVQEGGSLRVSCAASGRTFGRYAMGRYRQAPGKEREMVAAITVGGGSTYYADSVKGRFTISRDTAKNTVYLQMNSLKPEDTAVYYCNALHTYTYRYDYYYWGQGTQVTVSS
polyreactivity (PSR sort gate): high polyreactivity

QVQLVESGGGLVQAAGSLLLSCAPSGFIFYYNAMGWYRQAPGKETELVATIRGSGGSTYYADSVKGRFTISRDYAKNTVYLQMNSLKPEDTAVYYCAASVQYRRLKKFYYWGQGTQVTVSS
polyreactivity (PSR sort gate): high polyreactivity

QVQLDESGGGLVQAGGSLRLSCADSGRIFDRNALGWYRQAPGKESELVAAISSRGTSTYYADSVKGRFTISRDNAKNTVYLQMNSLKPEDTAVYYCAARPRYASDEFGYWGQGTQVTVSS
polyreactivity (PSR sort gate): low polyreactivity

QLQLHESGGGLVQAGGGLRLICAASGSISSTVFMGWYRQAPGKEREPVAAIAPCTTTYYADSLKGRFTISRDNAKNTVYLQKNSLRPEDTAVYYCAVFTDNRVAFLYWGQGTQVTLSS
polyreactivity (PSR sort gate): low polyreactivity

QVQLVESGGGLVQAGGSLRLICAASGSTSQNKAMGWYRPAPGKERELVAAITWSGDSTYYADSVKGRFTISRDNAKNTVYIQMNSLKPEDSAVYYCAAVSRFFSTYLYDYWGEGTQVTVSS
polyreactivity (PSR sort gate): low polyreactivity

QVQLVESGGGLVQAGGSLRLSCAASGSIFRRNAMGWYRQAPGKERELVAAISSNGGSTYYADSVKGRFTISRDNAKNTVYLQMNSLKQEDTAVYYFNALGRVRYSPRYGYDYWGLGTQVTVSS
polyreactivity (PSR sort gate): high polyreactivity

QVQLVESGGGLVQAGGSLRLSCAASGRTFGVNAMGWYRQAPGKERELVARIRVSGGRTYYADSVKGRFTISRDNAKNTVYLQMNSLKPEDTAVYYCNAGYTYNRVIWPYYYWGQGTQVTVSS
polyreactivity (PSR sort gate): high polyreactivity

QVQLVESGGGLVQAGGSLRLSCAASGSIFGEYAMGWYRQAPGKERELVAAINVNGGRTYYADSVKGRFTISRDNAKNTVYLQMNSLKPEDTAVYYCNARSYASYRQGNTYGSWGQGTQVTVSS
polyreactivity (PSR sort gate): high polyreactivity

QVQLVESGGGLVQAGGSLRLSCAASGRTFRRYAMGWYRQAPGKERELVAAISRTGSTNNYADSVKGRFTISRDNAKNTVYLQMNSLIPEDTAVYYCKRQHNLGYGYDYWGQGTQVTVSS
polyreactivity (PSR sort gate): high polyreactivity

QVQLVESGGGLVQAGGSLRLSCAASGRISYANAMGWYRQAPGKERELVASITYSAGSTYADSVKGRFTISRDNAKYTVYLQMNSLKPEDSAVYYCNAYHVIYARESDYWGQCTQVTVSS
polyreactivity (PSR sort gate): low polyreactivity

QVQLVESGGGLVQAGGSLRLSCAASGSTFWKYAMGWYRQAPGKEREFVAAITRSGGNTYYADSVKGRFTISRDNAKNTVYLQMNSLKPEDTAVYYCAKVYKLITSYRGFGYWGQGTQVTVSS
polyreactivity (PSR sort gate): high polyreactivity

QVQLVESGGGLVQAGGSLRLSCAASGRIFRANAMGWYRQAPGKERELVAAISTSGGSTTYADSVKGRFTISRDNAKNTVYLQMNCLKPEDTAVYYCAVDSWLKWRDKWVIRHDYWGQGTQVTVSS
polyreactivity (PSR sort gate): high polyreactivity

QVQLVESGGGLVQAGGSLSLSCAATGNTFYINNMGWYRQAPGKEREFVAAITWSGGPTYYADSVKGRFTISRDNAKNTVYLQMNSLKPEDTAVYYCAARRSGRWTGWTFYYWGQGTQVTVSS
polyreactivity (PSR sort gate): high polyreactivity

QVQHVESGGGLVQAGGILRFSSPASGGTVNINAMGWYIQAPGKERELFADISYSDGTTDYADSVKGRFTISRDNAKNTVYLQMNSLKPEDTAVYYCAAYYYYYSGFGQRSYSWGQGTNVTVSS
polyreactivity (PSR sort gate): low polyreactivity

QVQLVESGGGLVQAGGSLRLSCAASGSIFYQNALGWYRQAPGKETELVAAMSRSGGSTYYADSVKGRFTISRDNAKNTVYLQMNSLKPEDTAVYYCAARISRQRSYSRDYWGQGTQVTVSS
polyreactivity (PSR sort gate): high polyreactivity
